Reference: publication PMC2631105

Molecular target: rabbit muscle fructose-1,6-bisphosphate aldolase A D128V (rabbit)
Experiment: AUC

stoichiometry N: 2
Substance: rabbit muscle fructose-1,6-bisphosphate aldolase A D128V (enzyme)
